Reference: patent US20060223158

Biological target: T1, purified DARPP-32
T1 sequence (Q9UD71 1-204, species assumed, looked up): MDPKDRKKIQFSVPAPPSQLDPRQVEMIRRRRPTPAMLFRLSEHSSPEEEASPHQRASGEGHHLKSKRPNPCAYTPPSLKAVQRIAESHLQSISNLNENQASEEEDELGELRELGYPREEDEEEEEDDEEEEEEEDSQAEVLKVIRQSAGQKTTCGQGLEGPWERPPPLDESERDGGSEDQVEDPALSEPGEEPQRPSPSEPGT

B1: Myc-tagged MM2-CK1ε (S323A/T325A/T334A/T337A/S368A/S405A/T407A/S408A), expressed in N2a cells from pCS-Myc-MM2-CK1ε (protein)
chain: MELRVGNKYRLGRKIGSGSFGDIYLGANIASGEEVAIKLECVKTKHPQLHIESKFYKMMQGGVGIPSIKWCGAEGDYNVMVMELLGPSLEDLFNFCSRKFSLKTVLLLADQMISRIEYIHSKNFIHRDVKPDNFLMGLGKKGNLVYIIDFGLAKKYRDARTHQHIPYRENKNLTGTARYASINTHLGIEQSRRDDLESLGYVLMYFNLGSLPWQGLKAATKRQKYERISEKKMSTPIEVLCKGYPSEFSTYLNFCRSLRFDDKPDYSYLRQLFRNLFHRQGFSYDYVFDWNMLKFGAARNPEDVDRERREHEREERMGQLRGAAARALPPGPPAGAAANRLRSAAEPVASTPASRIQPAGNTSPRAIARVDRERKVSMRLHRGAPANVSSSDLTGRQEVSRIPAAQAAVPFDHLGK
  kinase activity of the immunoprecipitated enzyme with DARPP-32 as substrate, against HA-CK1ε: approximately 2-fold more active than HA-CK1ε in the absence of DHPG
